{"source": "patent US5336488A", "about": "“Method of treating or preventing mastitis in animals with involuting mammary glands by administering recombinant cytokines” (American Cyanamid Company, priority 1992, dated 1994)", "key": {"S. aureus [1]": {"test_system": "S. aureus", "experiment": "Therapy of established S. aureus mastitis infections", "type": "in vivo, S. aureus (in lactating Holstein dairy cattle)", "procedure": "The percentage of quarters clearing the infection for greater than 1 milking (RESPONDING), as compared to the percentage of quarters which actually cure their infections (CURE) is a measure of the failure of the host cells to kill the bacteria. The relapse rate is the greatest for r-BoIL-2 (combined relapse rate of 40% for the 10 mg dose X's 3). […] Furthermore, if activation of the host cells is effective, as indicated by the r-BoIL-2 and r-BoGM-CSF, then a combination therapy with r-BoIL-1 or antibiotics is useful.\n^1 S. aureus infections are established 2-3 weeks prior to treatment.\nTreatments are administered after the AM or PM milking by 1-3 successive\nintramammary infusions. A total of 120 mammary glands from 28 different\nlactating Holstein dairy cattle are used. Recombinant bovine\ninterleukin1(IL-1) and interleukin2(IL-2) are obtained from IMMUNEX Corp.\nSeattle, WA. Na cephapirin is prepared is PBS; and CefaLak ®\n(BristolMeyers) is used according to package# insert instructions.\n^2 Cytokines are infused intramammary through the teat canal after th\nPM milking at the indicated intervals. The total dose is delivered in a\ntotal volume of 10 ml of sterile PBS. The biological activity of rBoIL-1\nand rBoIL-2 is 32,000 Units/μg and 22,000 Units/μg, respectively. A\ntotal dose per infusion 200 mg of Na cephapirin and CefaLak ® is\nadministered after consecutive PM and AM milkings, according to described\n^3 The % RESPONDING = quarters which transiently (> 1 milking) are\nfree of S. aureus divided by the total number of quarters treated.\n^4 The % CURED QUARTERS = # of quarters which clear their infection\nand remain free of S. aureus divided by the total number of quarters\ntreated. Infections are considered to have relapsed if there are > 1 CFUs\nfrom three consecutive AM milkings, or > 20 CFUs for two consecutive afte\ntherapy at anytime during the 14 day monitoring period.\n^5 The % RELAPSE = [1 - {[…]}] ×"}, "S. aureus [2]": {"test_system": "S. aureus", "experiment": "Prevention of S. aureus mastitis in lactating animals", "type": "in vivo, S. aureus (in lactating Holstein dairy cattle)", "conditions": "for % CONTROL / % INFECTED: 1 mg, vs Control 2 (30 CFUs)", "source_text": "This maximal protection correlates with the peak quantitative biological response for this cytokine. […] This also correlates with the peak quantitative biological response of this cytokine and also marks the qualitative increase in phagocytosis and inducible superoxide, FIG. 2D & 2E.\n^1 Single intramammary infusion administered after the PM milking. A\ntotal of 100 mammary glands from 22 different lactating Holstein dairy\n^2 All glands are free of bacteria on 5 successive samples after the\nAM milking prior to the initial infusion.\n^3 The total dose in mass of protein is indicated. The biological\n^4 Infusions of cytokines were administerd simultaneously with S.\naureus 0, 24 or 48 hours proir to challenge with 30-200 CFUs of S.\n^5 Individual quarters are considered cured if the milk samples remai\nfree of S. aureus. for 14 days after intramammary challenge with of S.\n^6 The % Control = (1 - {% Infected After Therapy divided by Infected\nin Control Quarters)} × 100.\n*Quarters in Control 1 are challenged with 250 CFUs of S. aureus..\nQuarters in Control 2 are challenged with 30 CFUs of S. aureus."}, "milk PMNs [3]": {"test_system": "milk PMNs", "experiment": "Phagocytosis of fluorescent beads by milk PMNs (flow cytometry) after intramammary infusion", "type": "in vivo, bovine (Holstein dairy cattle)", "conditions": "FIG. 2H", "procedure": "(§1) FIGS. 2(A-I): Quantity and Quality of Milk PMNs from Mammary Glands Infused with r-BolL-1 or r-BoIL-2\n(§2) A total of 12 mammary glands from normal lactating Holstein dairy cattle are infused through the teat canal with either 200 μg of r-BoIL-1; 2 mg of r-BoIL-2; or 1 mg of r-BoGM-CSF. Milk samples are collected and the number of viable somatic cells counted on a Coulter® ZM with a C256 Channelyzer. The data is expressed as the somatic cell count per ml of milk sampled at 16, 40, 64 and 88 hours after infusion for r-BoIL-1 (A); r-BoIL-2 (D); or r-BoGM-CSF(G). The total percentage of phagocytosis by milk PMNs (polymorphonuclear cells) is quantitatively measured by flow cytometry by measuring the percentage of cells ingesting 2μ fluorescent beads for r-BoIL-1 (B); r-BoIL-2(E); or r-BoGM-CSF(H). The total population is first gated by forward angle light scatter, FALS and 90° light scatter to only consider viable polymorphonuclear cells. The induction of superoxide after PMA (520.eta.g)stimulation is also monitored using a whole cell cytochrome-c reduction assay, for r-BoIL-1 (C); r-BoIL-2(F); or r-BoGM-CSF(I). PMNs from untreated milk could not be induced to produce superoxide, while peripheral blood PMNs are inducible in a range of 5-15 .eta.M O2 /Minute/10^7 PMNs."}, "milk PMNs [4]": {"test_system": "milk PMNs", "experiment": "Inducible superoxide of milk PMNs after PMA stimulation (cytochrome-c reduction)", "type": "in vivo, bovine (Holstein dairy cattle)", "conditions": "r-BoGM-CSF, vs resident PMNs, FIG. 2I", "procedure": "as §1, §2"}, "milk PMNs [5]": {"test_system": "milk PMNs", "experiment": "Quantity of milk PMNs after intramammary infusion", "type": "in vivo, bovine (Holstein dairy cattle)", "procedure": "as §1, §2"}, "Bovine Mammary Gland": {"test_system": "Bovine Mammary Gland", "experiment": "Dose response of bovine mammary gland to intramammary infusion: somatic cell influx into milk", "type": "in vivo, bovine (Holstein dairy cattle)", "procedure": "FIG. 1: Dose Response of Bovine Mammary Gland to Intramammary Infusion of Recombinant Cytokines\nFive fold serial dilutions of r-BolL-1 (recombinant bovine interleukin-1) from 312.5 μg to […]: r-BoIL-2 (recombinant bovine interleukin-2) from 40 mg to 0.1 mg: and r-BoGM-CSF (recombinant bovine granulocyte macrophage colony stimulating factor) from 0.2 mg to […] are administered at time 0 into 3-4 mammary glands from normal lactating Holstein dairy cattle. A total of 54 mammary gland quarters, 3-4 per group, are infused through the teat canal with various concentrations of recombinant bovine cytokines after the morning milking. Milk samples are collected and the number of viable somatic cells counted on a Coulter® ZM with a C256 Channelyzer. The data is expressed as the somatic cell count per ml of milk\nThese doses are guidelines for quantitative induction of somatic cells, but significant beneficial qualitative changes can be induced with lower doses. The specific biological activity for r-BoIL-1 as a chemoattractant is approximately 10,000 fold greater than r-BoIL-2, although the in vitro specific bioactivities are equivalent. Active IL-2 inhibition or decreased biostability in milk might explain this discrepancy. The peak number of cells after r-BoIL-1 infusion with a maximal tolerable dose is 4-5 fold greater than r-BoIL-2. The kinetics of PMN migration into the mammary gland is such that migration occurs 8- 24 hours sooner for r-BoIL-1 infusions […] the BolL-2 infusion depending upon the dose. The dominant cell type after r-BoIL-1 or r-BoIL-2 infusion is PMNs."}, "[6]": {"experiment": "Specific biological activity of recombinant cytokine protein", "conditions": "mass of protein"}}}
{"molecule": "CC(=O)OCC1=C(C(=O)O)N2C(=O)[C@@H](NC(=O)CSc3ccncc3)[C@H]2SC1", "note": "[Na Cephapirin, sodium cephapirin, reference compound]", "values": [{"measurement": "% CURES", "setting": "S. aureus [1]; 200 mg, interval 12 hrs", "result": 42, "unit": "%"}, {"measurement": "% RELAPSE", "setting": "S. aureus [1]; 200 mg, interval 12 hrs", "result": 51, "unit": "%"}, {"measurement": "% RESPONSE", "setting": "S. aureus [1]; 200 mg, interval 12 hrs", "result": 86, "unit": "%"}, {"measurement": "relapse rate", "setting": "S. aureus [1]; as quoted in text of Example 5", "result": 57, "unit": "%"}]}
{"molecule": "recombinant bovine granulocyte macrophage colony stimulating factor (protein, UniProt P11052 18-143, looked up) Granulocyte-macrophage …: APTRPPNTATRPWQHVDAIKEALSLLNHSSDTDAVMNDTEVVSEKFDSQEPTCLQTRLKLYKNGLQGSLTSLMGSLTMMATHYEKHCPPTPETSCGTQFISFKNFKEDLKEFLFIIPFDCWEPAQK", "values": [{"measurement": "% CONTROL", "setting": "S. aureus [2]; -24 hrs", "result": 76, "unit": "%"}, {"measurement": "% INFECTED", "setting": "S. aureus [2]; -24 hrs", "result": 20, "unit": "%"}, {"measurement": "% CONTROL", "setting": "S. aureus [2]; -48 hrs", "result": 76, "unit": "%"}, {"measurement": "% INFECTED", "setting": "S. aureus [2]; -48 hrs", "result": 20, "unit": "%"}, {"measurement": "protection from S. aureus", "setting": "S. aureus [2]; administered 24 and 48 hours prior to challenge", "result": "good protection from S. aureus"}, {"measurement": "protection from subsequent S. aureus challenge", "setting": "S. aureus [2]; intramammary infusion, Table 1", "result": "capable of protecting the host from subsequent S. aureus challenge"}, {"measurement": "phagocytic ability of the cells in the milk of treated glands", "setting": "milk PMNs [3]; 24 and 48 hours", "result": "increase phagocytic ability"}, {"measurement": "percent of cells which are phagocytic", "setting": "milk PMNs [3]; r-BoGM-CSF", "result": "enhanced"}, {"measurement": "increase in phagocytosis, duration", "setting": "milk PMNs [3]; r-BoGM-CSF, up to 112 hrs", "result": "maintained above pre-infusion levels for up to 112 hrs"}, {"measurement": "inducible superoxide production", "setting": "milk PMNs [4]", "result": "increased over the resident PMNs"}, {"measurement": "quantitative changes in milk PMNs", "setting": "milk PMNs [5]; as summarised in Example 4", "result": "only minor quantitative changes in milk PMNs"}, {"measurement": "quantitative increase in milk PMNs", "setting": "milk PMNs [5]; even with a 5 mg intramammary dose, FIG. 2G", "result": "fails to elicit any significant quantitative increase in milk PMNs"}, {"measurement": "influx of cells into the mammary gland", "setting": "Bovine Mammary Gland; intramammary infusion of up to 5 mg", "result": "fails to elicit any significant influx of cells into the mammary gland"}, {"measurement": "infiltration of somatic cells into the milk", "setting": "Bovine Mammary Gland; intramammary infusion, lactating cattle, FIG. 1", "result": "no significant chemoattractant activity"}, {"measurement": "biological activity", "setting": "[6]", "result": "38,000 Units/μg"}]}
